US10064926B2, “Peptides and combination of peptides for use in immunotherapy against hepatocellular carcinoma (HCC) and other cancers” (Immatics biotechnologies GmbH, priority 2014, dated 2018)

Target: HLA-A*02 (Homo sapiens, UniProt P04439, D140Y/D185E/D98H/E176V/E277Q/G131W/G231S/I119V/I121R/I166T/I218V/N151K/N90K/P208A/P217A/Q86G/Q94H/R138H/R169H)
Test: UV-ligand exchange / peptide binding to MHC class I (beta2m ELISA)
Details: peptide exchange yield
How it was run: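 Peptide-MHC complexes generated by UV-mediated exchange of a photocleavable ligand for the test peptide. Exchange yield measured by streptavidin-capture ELISA detecting β2m of stabilized complexes (HRP anti-β2m, TMB, 450 nm). Samples diluted 100-fold, quantified against refolded HLA-A*0201 monomer standards (15-500 ng/ml).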

Substance	Peptide exchange (MHC class I binding score) (Table 10B, HLA-A*02 peptides)	Peptide exchange (MHC class I binding score) (Table 10A, UV-ligand exchange, β2m ELISA)
130 (ALDAGAVYTL; listed as Homo sapiens) [compound 130]	“++++” (≥75% = ++++)	–
100 (SLVGDIGNVNM; listed as Homo sapiens) [compound 100]	“++” (≥20% = ++)	–
63 (KIDEKNFVV; listed as Homo sapiens) [compound 63]	“+++” (≥50 = +++)	–
128 (GLAFSLNGV; listed as Homo sapiens) [compound 128]	“++++” (≥75% = ++++)	–
133 (ALLEMDARL; listed as Homo sapiens) [compound 133]	“+++” (≥50 = +++)	–
45 (ALQDQLVLV; listed as Homo sapiens) [compound 45]	“++++” (≥75% = ++++)	–
104 (SVWFGPKEV; listed as Homo sapiens) [compound 104]	“+++” (≥50 = +++)	–
44 (ALQDAIRQL; listed as Homo sapiens) [compound 44]	“++++” (≥75% = ++++)	–
36 (ILNVDGLIGV; listed as Homo sapiens) [compound 36]	“+++” (≥50 = +++)	–
102 (SLWSVARGV; listed as Homo sapiens) [compound 102]	“+++” (≥50 = +++)	–
77 (LLHEENFSV; listed as Homo sapiens) [compound 77]	“+++” (≥50 = +++)	–
118 (YLDDEKNWGL; listed as Homo sapiens) [compound 118]	“+++” (≥50 = +++)	–
107 (TLGQFYQEV; listed as Homo sapiens) [compound 107]	“++++” (≥75% = ++++)	–
67 (KLKETIQKL; listed as Homo sapiens) [compound 67]	“+++” (≥50 = +++)	–
132 (ALHEEVVGV; listed as Homo sapiens) [compound 132]	“+++” (≥50 = +++)	–
55 (GLYGRTIEL; listed as Homo sapiens) [compound 55]	“+++” (≥50 = +++)	–
51 (GLAEELVRA; listed as Homo sapiens) [compound 51]	“++” (≥20% = ++)	–
141 (AMGEKSFSV; listed as Homo sapiens) [compound 141]	“++++” (≥75% = ++++)	–
65 (KLFSGDELLEV; listed as Homo sapiens) [compound 65]	“+++” (≥50 = +++)	–
93 (RLYTMDGITV; listed as Homo sapiens) [compound 93]	“++” (≥20% = ++)	–

Substance	Peptide exchange (MHC class I binding score) (Table 10B, HLA-A*02 peptides)	Peptide exchange (MHC class I binding score) (Table 10A, UV-ligand exchange, β2m ELISA)
78 (LLIDDEYKV; listed as Homo sapiens) [compound 78]	“+++” (≥50 = +++)	–
31 (YQMDIQQEL; listed as Homo sapiens) [compound 31]	“+++” (≥50 = +++)	–
89 (RLIEEIKNV; listed as Homo sapiens) [compound 89]	“++” (≥20% = ++)	–
136 (ALLNQHYQV; listed as Homo sapiens) [compound 136]	“+++” (≥50 = +++)	–
33 (LLHGHIVEL; listed as Homo sapiens) [compound 33]	“+++” (≥50 = +++)	–
123 (YLWDLDHGFAGV; listed as Homo sapiens) [compound 123]	“+++” (≥50 = +++)	–
24 (SLAEEKLQASV; listed as Homo sapiens) [compound 24]	“+++” (≥50 = +++)	–
37 (LLLPLLPPLSP; listed as Homo sapiens) [compound 37]	“+++” (≥50 = +++)	–
119 (YLDKNLTVSV; listed as Homo sapiens) [compound 119]	“+++” (≥50 = +++)	–
113 (VLMDKLVEL; listed as Homo sapiens) [compound 113]	“++++” (≥75% = ++++)	–
53 (GLIHLEGDTV; listed as Homo sapiens) [compound 53]	“+++” (≥50 = +++)	–
32 (ALNAVRLLV; listed as Homo sapiens) [compound 32]	“++++” (≥75% = ++++)	–
58 (ILADLNLSV; listed as Homo sapiens) [compound 58]	“++++” (≥75% = ++++)	–
83 (QLHDFVMSL; listed as Homo sapiens) [compound 83]	“++++” (≥75% = ++++)	–
108 (TLLKKISEA; listed as Homo sapiens) [compound 108]	“+++” (≥50 = +++)	–
127 (VLIGSNHSL; listed as Homo sapiens) [compound 127]	“++++” (≥75% = ++++)	–
101 (SLWEGGVRGV; listed as Homo sapiens) [compound 101]	“+++” (≥50 = +++)	–
135 (ALLGKIEKV; listed as Homo sapiens) [compound 135]	“+++” (≥50 = +++)	–
30 (YLGEGPRMV; listed as Homo sapiens) [compound 30]	“+++” (≥50 = +++)	–
61 (KIADFELPTI; listed as Homo sapiens) [compound 61]	“++++” (≥75% = ++++)	–

The remaining lines, values ahead:

Peptide exchange (MHC class I binding score) (Table 10B, HLA-A*02 peptides)	Peptide exchange (MHC class I binding score) (Table 10A, UV-ligand exchange, β2m ELISA)	Substance
“++” (≥20% = ++)	–	292 (RIPAYFVTV; listed as Homo sapiens) [compound 292]
“+++” (≥50 = +++)	–	272 (QQLDSKFLEQV; listed as Homo sapiens) [compound 272]
“+++” (≥50 = +++)	–	168 (SLAVLVPIV; listed as Homo sapiens) [compound 168]
“+++” (≥50 = +++)	–	248 (KLNDLIQRL; listed as Homo sapiens) [compound 248]
“+++” (≥50 = +++)	+++ (50%-75% = +++)	221 (ALCEENMRGV; listed as Homo sapiens) [compound 221]
“++++” (≥75% = ++++)	–	156 (LLFPHPVNQV; listed as Homo sapiens) [compound 156]
“++” (≥20% = ++)	–	293 (FLASESLIKQI; listed as Homo sapiens) [compound 293]
“+++” (≥50 = +++)	–	154 (KLTDHLKYV; listed as Homo sapiens) [compound 154]
“++” (≥20% = ++)	–	253 (RVPPPPQSV; listed as Homo sapiens) [compound 253]
“+++” (≥50 = +++)	–	285 (KLLDLSDSTSV; listed as Homo sapiens) [compound 285]
“++” (≥20% = ++)	–	238 (AMPPPPPQGV; listed as Homo sapiens) [compound 238]
“+++” (≥50 = +++)	–	180 (YLGPHIASVTL; listed as Homo sapiens) [compound 180]
“+++” (≥50 = +++)	–	254 (RVQEAIAEV; listed as Homo sapiens) [compound 254]
“+++” (≥50 = +++)	–	170 (SLHNGVIQL; listed as Homo sapiens) [compound 170]
“++++” (≥75% = ++++)	–	251 (RLFADILNDV; listed as Homo sapiens) [compound 251]
“+++” (≥50 = +++)	–	277 (ALLEENSTPQL; listed as Homo sapiens) [compound 277]

Peptide exchange (MHC class I binding score) (Table 10B, HLA-A*02 peptides)	Peptide exchange (MHC class I binding score) (Table 10A, UV-ligand exchange, β2m ELISA)	Substance
“+++” (≥50 = +++)	–	297 (TLFYSLREV; listed as Homo sapiens) [compound 297]
“+++” (≥50 = +++)	–	171 (SLIPAVLTV; listed as Homo sapiens) [compound 171]
“+++” (≥50 = +++)	–	243 (GLLDNPELRV; listed as Homo sapiens) [compound 243]
“+++” (≥50 = +++)	–	166 (SILDIVTKV; listed as Homo sapiens) [compound 166]
“+++” (≥50 = +++)	–	163 (RLTESVLYL; listed as Homo sapiens) [compound 163]
“++++” (≥75% = ++++)	–	276 (ALLEADVNIKL; listed as Homo sapiens) [compound 276]
“++++” (≥75% = ++++)	–	245 (KLGAVFNQV; listed as Homo sapiens) [compound 245]
“+++” (≥50 = +++)	–	296 (SLLSGRISTL; listed as Homo sapiens) [compound 296]
“+++” (≥50 = +++)	–	266 (SLLESNKDLLL; listed as Homo sapiens) [compound 266]
“++++” (≥75% = ++++)	–	165 (RVIEHVEQV; listed as Homo sapiens) [compound 165]
“+++” (≥50 = +++)	–	267 (ALNENINQV; listed as Homo sapiens) [compound 267]
“+++” (≥50 = +++)	–	256 (SLFQGVEFHYV; listed as Homo sapiens) [compound 256]
“++++” (≥75% = ++++)	–	274 (ALAEALKEV; listed as Homo sapiens) [compound 274]
“++++” (≥75% = ++++)	–	247 (KLLDTMVDTFL; listed as Homo sapiens) [compound 247]
“++++” (≥75% = ++++)	–	176 (TLGQIWDV; listed as Homo sapiens) [compound 176]
